Test results as given in patent publication US20180179276A1 (NEURIMMUNE, published 2018).

Target: pathological Aβ deposits in a human brain with Alzheimer's disease (human, UniProt P05067 672-713)
Test: not described (human Alzheimer brain tissue)

pathological Aβ deposits in a human brain with Alzheimer's disease, sequence (P05067 672-713): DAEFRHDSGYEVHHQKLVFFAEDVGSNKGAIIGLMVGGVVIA

B1: antibody NI-203.26C11 (constant region as tested not stated) (antibody, V domains shown)
VH: QVQLQESGPGLVKPSQTLSLTCTVSGGSISSGNYYWTWIRQPAGKGLEWIGHIYSSGTTNYNPSLESRVTISVDTSKNQFSLSLNSVTAADTAVYYCARPLATVPDAFNIWGQGTMVTVSS
VL: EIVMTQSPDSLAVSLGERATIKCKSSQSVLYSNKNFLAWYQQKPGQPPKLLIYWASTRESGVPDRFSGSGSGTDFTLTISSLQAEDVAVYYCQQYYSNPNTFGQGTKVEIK
notes: also called anti-hIAPP antibody
B1: no binding.
